Results as given in patent publication US20240279278A1, “NMU RECEPTOR 2 AGONISTS” (Boehringer Ingelheim International GmbH, priority 2023, published 2024).
Starred links: 1 amine or outer side, 2 acyl side, 3 side chain; linkers in the order of their positions; H or OH if unused. Non-standard residues stand in square brackets, D forms with d. *: point of attachment. Pipz(1-CH2CO,4-CH2CH2NH) = O=C(CN1CCN(CCN[*:1])CC1)[*:2]; C18 diacid = O=C(O)CCCCCCCCCCCCCCCCC(=O)*; γGlu = O=C(O)[C@H](CCC(=O)[*:2])N[*:1]; 3Pal = N[C@@H](Cc1cccnc1)C(=O)O; NMeL = CN[C@@H](CC(C)C)C(=O)O; Nle = CCCC[C@H](N)C(=O)O; Sar = CNCC(=O)O

T1: human neuromedin U receptor 1 (human, UniProt Q9HB89 24-426)
T1 sequence (looked up): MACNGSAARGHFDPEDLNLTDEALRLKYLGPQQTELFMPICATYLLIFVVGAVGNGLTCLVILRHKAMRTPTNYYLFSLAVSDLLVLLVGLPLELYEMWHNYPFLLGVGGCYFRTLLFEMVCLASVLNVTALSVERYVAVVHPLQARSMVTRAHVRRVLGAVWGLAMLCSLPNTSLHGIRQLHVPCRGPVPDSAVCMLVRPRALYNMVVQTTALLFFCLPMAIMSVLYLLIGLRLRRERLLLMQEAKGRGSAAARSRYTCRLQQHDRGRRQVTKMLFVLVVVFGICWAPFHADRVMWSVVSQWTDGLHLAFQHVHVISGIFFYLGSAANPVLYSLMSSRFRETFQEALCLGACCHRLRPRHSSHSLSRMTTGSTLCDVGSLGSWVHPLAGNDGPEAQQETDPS

B1: C18DA-gGlu3-Sar15-AEPipAc-Tyr-Phe-NMeLeu-Nle-NMeArg-Pro-Arg-Gly-NH2 (peptide)
peptide: EEEXXXXXXXXXXXXXXXXYFLXRPRG
HELM: PEPTIDE1{[O=C(O)CCCCCCCCCCCCCCCCC(=O)[*:2]].[gGlu].[gGlu].[gGlu].[Sar].[Sar].[Sar].[Sar].[Sar].[Sar].[Sar].[Sar].[Sar].[Sar].[Sar].[Sar].[Sar].[Sar].[Sar].[O=C(CN1CCN(CCN[*:1])CC1)[*:2]].Y.F.[meL].[Nle].[meR].P.R.G.[am]}$$$$V2.0
SMILES: CCCC[C@H](NC(=O)[C@H](CC(C)C)N(C)C(=O)[C@H](Cc1ccccc1)NC(=O)[C@H](Cc1ccc(O)cc1)NC(=O)CN1CCN(CCNC(=O)CN(C)C(=O)CN(C)C(=O)CN(C)C(=O)CN(C)C(=O)CN(C)C(=O)CN(C)C(=O)CN(C)C(=O)CN(C)C(=O)CN(C)C(=O)CN(C)C(=O)CN(C)C(=O)CN(C)C(=O)CN(C)C(=O)CN(C)C(=O)CN(C)C(=O)CC[C@H](NC(=O)CC[C@H](NC(=O)CC[C@H](NC(=O)CCCCCCCCCCCCCCCCC(=O)O)C(=O)O)C(=O)O)C(=O)O)CC1)C(=O)N(C)[C@@H](CCCNC(=N)N)C(=O)N1CCC[C@H]1C(=O)N[C@@H](CCCNC(=N)N)C(=O)NCC(N)=O
B2: C18DA-gGlu3-Sar15-AEPipAc-Tyr-Phe-NMeLeu-Nle-3Pal-Pro-Arg-Gly-NH2 (peptide)
peptide: {C18 diacid}-[γGlu][γGlu][γGlu][Sar][Sar][Sar][Sar][Sar][Sar][Sar][Sar][Sar][Sar][Sar][Sar][Sar][Sar][Sar][Pipz(1-CH2CO,4-CH2CH2NH)]YF[NMeL][Nle][3Pal]PRG-NH2
SMILES: CCCC[C@H](NC(=O)[C@H](CC(C)C)N(C)C(=O)[C@H](Cc1ccccc1)NC(=O)[C@H](Cc1ccc(O)cc1)NC(=O)CN1CCN(CCNC(=O)CN(C)C(=O)CN(C)C(=O)CN(C)C(=O)CN(C)C(=O)CN(C)C(=O)CN(C)C(=O)CN(C)C(=O)CN(C)C(=O)CN(C)C(=O)CN(C)C(=O)CN(C)C(=O)CN(C)C(=O)CN(C)C(=O)CN(C)C(=O)CN(C)C(=O)CC[C@H](NC(=O)CC[C@H](NC(=O)CC[C@H](NC(=O)CCCCCCCCCCCCCCCCC(=O)O)C(=O)O)C(=O)O)C(=O)O)CC1)C(=O)N[C@@H](Cc1cccnc1)C(=O)N1CCC[C@H]1C(=O)N[C@@H](CCCNC(=N)N)C(=O)NCC(N)=O
B3: C18DA-gGlu3-Sar15-AEPipAc-Tyr-Phe-NMeLeu-Nle-NMeArg-NMeAla-Arg-Gly-NH2 (peptide)
peptide: EEEXXXXXXXXXXXXXXXXYFLXRARG
HELM: PEPTIDE1{[O=C(O)CCCCCCCCCCCCCCCCC(=O)[*:2]].[gGlu].[gGlu].[gGlu].[Sar].[Sar].[Sar].[Sar].[Sar].[Sar].[Sar].[Sar].[Sar].[Sar].[Sar].[Sar].[Sar].[Sar].[Sar].[O=C(CN1CCN(CCN[*:1])CC1)[*:2]].Y.F.[meL].[Nle].[meR].[meA].R.G.[am]}$$$$V2.0
SMILES: CCCC[C@H](NC(=O)[C@H](CC(C)C)N(C)C(=O)[C@H](Cc1ccccc1)NC(=O)[C@H](Cc1ccc(O)cc1)NC(=O)CN1CCN(CCNC(=O)CN(C)C(=O)CN(C)C(=O)CN(C)C(=O)CN(C)C(=O)CN(C)C(=O)CN(C)C(=O)CN(C)C(=O)CN(C)C(=O)CN(C)C(=O)CN(C)C(=O)CN(C)C(=O)CN(C)C(=O)CN(C)C(=O)CN(C)C(=O)CN(C)C(=O)CC[C@H](NC(=O)CC[C@H](NC(=O)CC[C@H](NC(=O)CCCCCCCCCCCCCCCCC(=O)O)C(=O)O)C(=O)O)C(=O)O)CC1)C(=O)N(C)[C@@H](CCCNC(=N)N)C(=O)N(C)[C@@H](C)C(=O)N[C@@H](CCCNC(=N)N)C(=O)NCC(N)=O
B4: C18DA-gGlu3-Sar15-AEPipAc-Tyr-Phe-NMeLeu-Nle-His-NMeAla-Arg-Gly-NH2 (peptide)
peptide: EEEXXXXXXXXXXXXXXXXYFLXHARG
HELM: PEPTIDE1{[O=C(O)CCCCCCCCCCCCCCCCC(=O)[*:2]].[gGlu].[gGlu].[gGlu].[Sar].[Sar].[Sar].[Sar].[Sar].[Sar].[Sar].[Sar].[Sar].[Sar].[Sar].[Sar].[Sar].[Sar].[Sar].[O=C(CN1CCN(CCN[*:1])CC1)[*:2]].Y.F.[meL].[Nle].H.[meA].R.G.[am]}$$$$V2.0
SMILES: CCCC[C@H](NC(=O)[C@H](CC(C)C)N(C)C(=O)[C@H](Cc1ccccc1)NC(=O)[C@H](Cc1ccc(O)cc1)NC(=O)CN1CCN(CCNC(=O)CN(C)C(=O)CN(C)C(=O)CN(C)C(=O)CN(C)C(=O)CN(C)C(=O)CN(C)C(=O)CN(C)C(=O)CN(C)C(=O)CN(C)C(=O)CN(C)C(=O)CN(C)C(=O)CN(C)C(=O)CN(C)C(=O)CN(C)C(=O)CN(C)C(=O)CC[C@H](NC(=O)CC[C@H](NC(=O)CC[C@H](NC(=O)CCCCCCCCCCCCCCCCC(=O)O)C(=O)O)C(=O)O)C(=O)O)CC1)C(=O)N[C@@H](Cc1c[nH]cn1)C(=O)N(C)[C@@H](C)C(=O)N[C@@H](CCCNC(=N)N)C(=O)NCC(N)=O
B5: C18DA-gGlu3-Sar15-AEPipAc-Tyr-Phe-NMeLeu-Nle-His-Pro-Arg-Gly-NH2 (peptide)
peptide: EEEXXXXXXXXXXXXXXXXYFLXHPRG
HELM: PEPTIDE1{[O=C(O)CCCCCCCCCCCCCCCCC(=O)[*:2]].[gGlu].[gGlu].[gGlu].[Sar].[Sar].[Sar].[Sar].[Sar].[Sar].[Sar].[Sar].[Sar].[Sar].[Sar].[Sar].[Sar].[Sar].[Sar].[O=C(CN1CCN(CCN[*:1])CC1)[*:2]].Y.F.[meL].[Nle].H.P.R.G.[am]}$$$$V2.0
SMILES: CCCC[C@H](NC(=O)[C@H](CC(C)C)N(C)C(=O)[C@H](Cc1ccccc1)NC(=O)[C@H](Cc1ccc(O)cc1)NC(=O)CN1CCN(CCNC(=O)CN(C)C(=O)CN(C)C(=O)CN(C)C(=O)CN(C)C(=O)CN(C)C(=O)CN(C)C(=O)CN(C)C(=O)CN(C)C(=O)CN(C)C(=O)CN(C)C(=O)CN(C)C(=O)CN(C)C(=O)CN(C)C(=O)CN(C)C(=O)CN(C)C(=O)CC[C@H](NC(=O)CC[C@H](NC(=O)CC[C@H](NC(=O)CCCCCCCCCCCCCCCCC(=O)O)C(=O)O)C(=O)O)C(=O)O)CC1)C(=O)N[C@@H](Cc1c[nH]cn1)C(=O)N1CCC[C@H]1C(=O)N[C@@H](CCCNC(=N)N)C(=O)NCC(N)=O
B6: C20DA-gGlu3-Sar15-AEPipAc-Tyr-Phe-NMeLeu-Nle-Lys-NMeAla-Arg-Gly-NH2 (peptide)
peptide: EEEXXXXXXXXXXXXXXXXYFLXKARG
HELM: PEPTIDE1{[O=C(O)CCCCCCCCCCCCCCCCCCC(=O)[*:2]].[gGlu].[gGlu].[gGlu].[Sar].[Sar].[Sar].[Sar].[Sar].[Sar].[Sar].[Sar].[Sar].[Sar].[Sar].[Sar].[Sar].[Sar].[Sar].[O=C(CN1CCN(CCN[*:1])CC1)[*:2]].Y.F.[meL].[Nle].K.[meA].R.G.[am]}$$$$V2.0
SMILES: CCCC[C@H](NC(=O)[C@H](CC(C)C)N(C)C(=O)[C@H](Cc1ccccc1)NC(=O)[C@H](Cc1ccc(O)cc1)NC(=O)CN1CCN(CCNC(=O)CN(C)C(=O)CN(C)C(=O)CN(C)C(=O)CN(C)C(=O)CN(C)C(=O)CN(C)C(=O)CN(C)C(=O)CN(C)C(=O)CN(C)C(=O)CN(C)C(=O)CN(C)C(=O)CN(C)C(=O)CN(C)C(=O)CN(C)C(=O)CN(C)C(=O)CC[C@H](NC(=O)CC[C@H](NC(=O)CC[C@H](NC(=O)CCCCCCCCCCCCCCCCCCC(=O)O)C(=O)O)C(=O)O)C(=O)O)CC1)C(=O)N[C@@H](CCCCN)C(=O)N(C)[C@@H](C)C(=O)N[C@@H](CCCNC(=N)N)C(=O)NCC(N)=O

These binders were tested against T1, human neuromedin U receptor 1 (assay: cell-based or functional assay).

EC50 (hNMUR1) buffer [µM] | Binder
0.2 | B1
> 1 | B2
1.3 | B3
> 1 | B4
> 1 | B5
> 1 | B6
